Key:
[1] = target: moesin FERM domain, 1-297 (UniProt P26038); test: SPR competition assay
[2] = test system: THP-1 cells over TNF-α-activated HUVEC; test: L-selectin-GFP/RFP clustering in mid-TEM under flow, FLIM/FRET; type: cell-based, human
Protocol: (A) Line scanning confocal microscopic image of THP-1 cells, stably expressing GFP, captured in mid-TEM—following 15 min of perfusion over TNF-α-activated HUVEC monolayers. […] “Top” and “Base,” respectively, represent the apical and basolateral aspect of the endothelium (x63 objective lens, Leica SP5). Scale bar = 24 μm. (B,C) THP-1 cells expressing WT, SSAA, or SSDD L-selectin-GFP/RFP were perfused over TNF-α-activated HUVEC and fixed after 15 min of perfusion. […] Lifetime images taken of at least 45 cells and analyzed over 3 independent experiments was quantified and expressed as FRET efficiency. Images representative of three independent experiments, where at least 45 cells of each group was analyzed at two optical sections, Top and Base, as indicated in the cartoon of a yellow monocyte captured in mid-TEM crossing a red endothelium. Individual GFP channel and lifetime images are provided for each cell line. The lifetime of fluorescence is expressed in a pseudocolour scale from red (low lifetime with a very high probability of interaction) to blue (high lifetime with a very low probability of interaction). Statistics: unpaired student t-test ***p ≤ 0.001.
Cells expressing WT L-selectin-GFP/RFP were treated for 30 min with 10 μM TAPI-0 and subsequently perfused over TNF-activated HUVEC monolayers for 15 min prior to fixation and analysis for FRET by FLIM (see Materials and Methods for more detail). […] (B) Images representative of three independent experiments, where at least 45 cells of each group were analyzed at two optical sections–non-transmigrated uropods (Top) and transmigrated pseudopods (Base). GFP fluorescence channel and lifetime images are provided for each cell line. The lifetime of fluorescence is expressed in a pseudocolour scale from red (low lifetime with a very high probability of interaction) to blue (high lifetime with a very low probability of interaction). […]
FLIM measurement of FRET was performed with a multiphoton microscope system as described previously ([8], [23]). […] Fluorescence lifetime imaging capability was provided by time-correlated, single-photon counting electronics (SPC 700; Becker & Hickl). […] Data were analyzed as previously described ([65]). The FRET efficiency is related to the molecular separation of donor and acceptor and the fluorescence lifetime of the interacting fraction by: […]
where ηFRET is the FRET efficiency, R0 is the Förster radius, r is the molecular separation, τFRET is the lifetime of the interacting fraction and τd is the lifetime of the donor in the absence of an acceptor. The donor- only control is used as the reference against which all of other lifetimes are calculated in each experiment. τFRET and τd can also be taken to be the lifetime of the interacting fraction and non-interacting fraction, respectively. […]

[3] = test system: THP-1 cells over TNF-α-activated HUVEC; test: Pseudopod protrusion scoring in TEM under flow; type: cell-based, human
Protocol: (A) The number of protrusions formed over this period was scored as: zero, one, two, or >2. (B) The percentages of cells bearing these protrusions were scored at specific time points: 6 min (blue bars), 15 min (green bars), or 25 min (red bars). Supplementary Videos 2, 3, 4 provide examples of cells producing a range of protrusions as TEM proceeds. Data represent SEM of 3 fields of view per flow experiment, conducted on three separate occasions, and at least 180 cells analyzed per group. Values of the vertical lines indicate the differences in protrusion number (specifically “zero” and “two”) corresponding to each of the cell lines, for which statistical significance is shown in Table 1.
All flow experiments were performed using a 35 mm diameter Glycotech parallel plate flow chamber. Perfusion experiments were performed at 1.5 dyn/cm^2 using a Harvard Apparatus 2000 PHD syringe pump. Perfusion media consisted of: RPMI supplemented with L-glutamine, 10% FCS, 1% penicillin/streptomycin, 50 μM β-mercaptoethanol, and 25 mM HEPES. Human Umbilical Vein Endothelial Cells (HUVEC–Lonza) were seeded onto 35 mm diameter glass coverslips (no. 1 thickness; VWR) that were pre-coated with 10 μg/mL fibronectin (37°C for at least 1 h). Before each perfusion assay, HUVEC were stimulated overnight (16 h) with 10 ng/mL carrier-free recombinant human TNF-α (R&D Systems). Each perfusion assay was performed by injecting a bolus of cells for 6 min, followed by just perfusion media (without cells) for the […]. THP-1 cells were perfused at a density of 0.5 ×10^6 cells per mL. THP-1 cells treated with 10 μM TAPI-0 required a preincubation time of 10 min at 37°C before perfusion over TNF-α-activated HUVEC. Note that 10 μM TAPI-0 was also supplemented in the perfusate. Stills were acquired once every 10 seconds using 10 × objective lens.

Molecule: mouse L-selectin cytoplasmic tail (from UniProt P18337) mouse pS364 tail peptide
- binding against the reference ([1]; reference: mouse non-phosphorylated tail peptide (NPP), sites S364): lost

Molecule: CC(C)C[C@H](CC(=O)NO)C(=O)N[C@@H](Cc1ccc2ccccc2c1)C(=O)N[C@@H](C)C(N)=O [TAPI-0, reference compound]
- subcellular distribution of WT L-selectin clustering during TEM with sheddase inhibitor ([2]; 10 μM TAPI-0 pretreatment and in perfusate, WT L-selectin-GFP/RFP, 15 min perfusion): a large majority of L-selectin clustering had relocated from transmigrated pseudopods to non-transmigrated uropods

Molecule: L-selectin cytoplasmic tail, 356-372 (from UniProt P14151) pS367 tail peptide
- binding against the reference ([1]; reference: non-phosphorylated tail peptide (NPP), sites S367): same

Molecule: L-selectin cytoplasmic tail, 356-372 (from UniProt P14151) pS364 tail peptide
- binding against the reference ([1]; reference: non-phosphorylated tail peptide (NPP), sites S364): lost

B1: SSDD: L-selectin with phospho-mimicking aspartates at Ser^364 and Ser^367 (protein)
chain: WTYHYSEKPMNWQRARRFCRDNYTDLVAIQNKAEIEYLEKTLPFSRSYYWIGIRKIGGIWTWVGTNKSLTEEAENWGDGEPNNKKNKEDCVEIYIKRNKDAGKWNDDACHKLKAALCYTASCQPWSCSGHGECVEIINNYTCNCDVGYYGPQCQFVIQCEPLEAPELGTMDCTHPLGNFSFSSQCAFSCSEGTNLTGIEETTCGPFGNWSSPEPTCQVIQCEPLSAPDLGIMNCSHPLASFSFTSACTFICSEGTELIGKKKTICESSGIWSNPSPICQKLDKSFSMIKEGDYNPLFIPVAVMVTAFSGLAFIIWLARRLKKGKKDKRDMNDPY
modifications: left off: eGFP (donor copy) or mCherry (acceptor copy, called RFP), C-terminal, kept
- subcellular distribution of L-selectin clustering during TEM (FLIM/FRET) ([2]; 15 min perfusion at 1.5 dyn/cm^2, fixed in mid-TEM, Top = non-transmigrated uropods, Base = transmigrated pseudopods, at least 45 cells, 3 experiments, no TAPI-0): lacked any signs of clustering during TEM

B2: S364A: L-selectin with Ser^364 mutated to alanine, GFP-tagged, expressed in THP-1 cells (protein, UniProt P14151 39-372, looked up, variant S364A)
L-selectin: WTYHYSEKPMNWQRARRFCRDNYTDLVAIQNKAEIEYLEKTLPFSRSYYWIGIRKIGGIWTWVGTNKSLTEEAENWGDGEPNNKKNKEDCVEIYIKRNKDAGKWNDDACHKLKAALCYTASCQPWSCSGHGECVEIINNYTCNCDVGYYGPQCQFVIQCEPLEAPELGTMDCTHPLGNFSFSSQCAFSCSEGTNLTGIEETTCGPFGNWSSPEPTCQVIQCEPLSAPDLGIMNCSHPLASFSFTSACTFICSEGTELIGKKKTICESSGIWSNPSPICQKLDKSFSMIKEGDYNPLFIPVAVMVTAFSGLAFIIWLARRLKKGKKAKRSMNDPY
modifications: C-terminal GFP tag
- protrusive activity profile in TEM (in words) ([3]; 6, 15 and 25 min of flow over TNF-α-activated HUVEC): produced a profile of protrusive activity that was similar to cells expressing WT L-selectin
- cells with 2 protrusions ([3]; 15 min time point, mean of 3 fields of view per flow experiment, three occasions, at least 180 cells per group, significance ** S367A p ≤ 0.01 (Tukey), % printed): 32.9%
- cells with 0 protrusions ([3]; 15 min time point, mean of 3 fields of view per flow experiment, three occasions, at least 180 cells per group, significance *** S367A p ≤ 0.001, ** SSAA p ≤ 0.01 (Tukey), % printed): 11.3%

Reference: publication PMC6774396 (Frontiers in Immunology, 2019)
